Experimental data reported in US20240245805A1 (Orna Therapeutics, Inc., priority 2020, published 2024).

B1: Wobbly possum disease virus (nucleic acid)
DNA: CGGCTGTGAGTGCTTAGCATATGCTAGAGTACTACAGCCGGGTGTTGGAGTCATATGCACTGGTTGCCTGTATAATAGTCGGGATCTGTCTGACCTACATTATCTTTGGGAGTTGCTTATCACGACAATTCTCGAAGTGTCTGTCGACAGCTTACCCCCGATTCGACAAGGCCCCTTGTCCACCGCAGACCTATCGATTTTCAACGAGAACACTATCAGAGGTTTAAATTTAAAACTCACCAACA
modifications: source: /note="Description of Unknown: Wobbly possum disease virus sequence"
B2: Shingleback nidovirus 1 (nucleic acid)
DNA: CTGTGAGTACCGACAGGCTCGAAGTCTATTATGAGGCGTCGAAACAGAAAACCTGTAACAACTCCGGTTTCATCTATCACTGCCGTCAAGAGGCAGAAGAGGACGACCACGTGTCACCAGATCACTTGTATCTGTTTCAGTCAGGAAGTCAACTTTTCGACGAAGTTCGACCATTCATCGACCCGCTGAAAAGCGTAGAAGTCGATGAAGATGAGCTCCAAAGAGCCATCGCCGATTTCGACAACCAAAGTGACTGTTTCCACTCCTTCGAGCTCGTGAATTTCGAGCTGAAACAACAAATCAACGAGAACGAGTGGTACGGTTATTATAATTACGACAACCAAAACTGCAAAGTTCAGTTGCCAGTCACATGTCGAATCGAGGACGTAACCTGGGATCAGGTTTACGTG
modifications: Shingleback nidovirus 1
B3: Picornavirales sp. isolate RtMruf-Pico V (nucleic acid)
DNA: TTTGCTCAGCGTAACTTCTCCGGGTTACGTGGAGACCAAAAGGCTACGGAGACTCGGGCTACGGCCCTGGAGCACCTAGGTGCTCCTAAAGACGTTAGAAGTTGTACAAACTCGCCCAATAGGGCCCCCCAACCAGGGGGGTAGCGGGCAAGCACTTCTGTTTCCCCGGTATGATCTCATAGGCTGTACCCACGGCTGAAAGAGAGATTATCGTTACCCGCCTCACTACTTCGAGAAGCCCAGTAATGGTTCATGAAGTTGATCTCGTTGACCCGGTGTTTCCCCCACACCAGAAACCTGTGATGGGGGTGGTCATCCCGGTCATGGCGACATGACGGACCTCCCCGCGCCGGCACAGGGCCTCTTCGGAGGACGAGTGACATGGATTCAACCGTGAAGAGCCTATTGAGCTAGTGTTGATTCCTCCGCCCCCGTGAATGCGGCTAATCCCAACTCCGGAGCAGGCGGGCCCAAACCAGGGTCTGGCCTGTCGTAACGCGAAAGTCTGGAGCGGAACCGACTACTTTCGGGAAGGCGTGTTTCCTTTTGTTCCTTTTATCAAGTTTTATGGTGACAACTCCTGGTAGACGTTTTATTGCGTTTATTGAGAGATTTCCAACAATTGAACAGACTAGAACCACTTGTTTTATCAAACCCTCACAGAATAAGATAACA
modifications: lipid formulation; source: /note="Description of Unknown: Picornavirales sp. isolate RtMruf-PicoV sequence"
B4: Avian orthoreovirus segment S1 (nucleic acid, listed as Avian orthoreovirus)
DNA: GCTTTTTCAATCCCTTGTGTCGATGTTCCCGTATGTCATCTGGTTCATGTAACGGTGCAACTTCTATTTTTGGTAACGTTCACTGTCAGGCAGCGCAAAACTCGGCGGGTGGTGATCTTCAAGCGACTTCCTCTCTTGTTGCTTATTGGCCCTACTTGGCTGCGGGCGGTGGTCTGCTCGTTGTTATTATTATAATTGTTGGCGCTGTTTGTTGTTGCAAGGCTAAGGTTAAAGCGGACGCAGCCCGAAACGTTTTCTACCGAGAGCTGTTCGCACTTAATTCGGGTAAAAGTGATGCAGGACCTCCGATTTACCAGGTTTAGTGTACGACGATTTGAGTTTTCACCTTTCGTCTTAGAGGAGTGCACTACTCCATCTTTCACGACTATAACTAATACCGATCCGGCTCTCTACTTTAACATTGAGTTTCCGTCAAGTCATCGTCTCTCCCCCTTCATTCCAGAACTGTTGTCTCAGCCTTGTACCGTTCACGTTTCATTGATTCGGAGATTCGCTCTCTGTGCAACCTTATCTAGTATTTGTGAATACGACTGTGCGCTACTGCCATCCATCAACGCTATTACGACGATCCCTACACCAGGTGCGTCATCATCTCTGATTGTTCATTGGG
B5: Seneca valley virus (nucleic acid)
DNA: TTTGAAATGGGGGGCTGGGCCCTGATGCCCAGTCCTTCCTTTCCCCTTCCGGGGGGTTAACCGGCTGTGTTTGCTAGAGGCACAGAGGGGCAACATCCAACCTGCTTTTGCGGGGAACGGTGCGGCTCCGATTCCTGCGTCGCCAAAGGTGTTAGCGCACCCAAACGGCGCACCTACCAATGTTATTGGTGTGGTCTGCGAGTTCTAGCCTACTCGTTTCTCCCCCGACCATTCACTCACCCACGAAAAGTGTGTTGTAACCATAAGATTTAACCCCCGCACGGGATGTGCGATAACCGTAAGACTGGCTCAAGCGCGGAAAGCGCTGTAACCACATGCTGTTAGTCCCTTTATGGCTGCAAGATGGCTACCCACCTCGGATCACTGAACTGGAGCTCGACCCTCCTTAGTAAGGGAACCGAGAGGCCTTCGTGCAACAAGCTCCGACACAGAGTCCACGTGACTGCTACCACCATGAGTACATGGTTCTCCCCTCTCGACCCAGGACTTCTTTTTGAATATCCACGGCTCGATCCAGAGGGTGGGGCATGACCCCTAGCATAGCGAGCTACAGCGGGAACTGTAGCTAGGCCTTAGCGTGCCTTGGATACTGCCTGATAGGGCGACGGCCTAGTCGTGTCGGTTCTATAGGTAGCACATACAAAT
modifications: source: /note="Description of Unknown: Seneca valley virus sequence"
B6: Yak enterovirus (nucleic acid, listed as Enterovirus sp.)
DNA: CTCCGGCACAGCCGCACCAGTGCACTGGTACGCTAGTACCTTTTCACGGGGTAGTCGGTATCCCCCCCCGTAACTTAGAAGCATGTAACAAACCGACCAATAGGTGCGCGGCAGCCAGCTGCGTTGCGGTCAAGCACTTCTGTCTCCCCGGTCCGCAAGGATCGTTACCCGCCCACTCCACTACGAGGAGCCTAGTAACTGGCCAAGTGATTGCGGAGTTGCGTTCAGCCACAACCCCAGTGGTAGCTCTGGAAGATGGGGCTCGCACATCCCCCGTGGTAACACGGTTGCTTGCCCGCGTGTGCTTCCGGGTTCAGTCTCCGACTGTTCACTTCAACATCACGCAACCAGCCAAGAGCCGATTGTGCTGGAGTGGTCTTCCTCCGGGGCCGTGAATGCTGCTAATCCTAACCTCCGAGCGTGTGCGCACAATCCAGTGTTGCTACGTCGTAACGCGTAAGTTGGAGGCGGAACAGACTACTTTCGGCACCCCGTGTTTCCTTTATTTTATTCTTATTTTATGGTGACAATTGCAGAGATTTGTGATATTGCGACTTTACCGTTAAACATAGCACTGCATTACCTGGTTGCATTCCACAAAACTTCAGAGATTCCTAGTTCCTACATTGACCTACTTGTTTATTTGAATCTTAAATACAAACTTGAGCAAGTGAA
B7: Rabovirus A (nucleic acid)
DNA: CTACGGATATTTGCATGACCCGCTTTCTATCGCCCCAACAATCCCCTTTGTAACCACAAGCTTTACTCAGGCTAGCAGCCCGACTAGCTGTTTGGAAGAAAAGGCTAGGGCACACACCAACAACACCGACCCCACTGGTCGAAGGCCGCTTGGCAATAAGACTGGTGGAACAGGGTCGCCTGTAGTTGTTTGGAACATTCTTTCTAATGACTTTGTCAGCGGTGCTACTCACACCGTAACTCTTCTACCCTATCCCCACGCTTGTGGAACTAGGAGGGGATGAGTGATTCAAGTAAGTACTGTCAGAATGGTGAAAATGATCTGATTCTGAAACGCTATGGATCCATCGAAAGATGGGGCTACACGCCTGCGGAACAACACATGGTAACATGTGCCCCAGGGGCCGAAAGCCACGGTGATAGGATCACCCGTGTAGTTTGAGATCATATCAATGTTCATAGTCTAGTAAGATGATTTGAAATCTAACTGAGCTGATGGCTAACTGCTTGTCTTATTGCGGCCTAAGGATGTCCTGCAGGTACCTTTAGATAACCTTAAGAGACTATTGATCTGAGCAGGAGCCAAAGTGGTCTTTCCCAGCTTTGGTTAAAAAACGTCTAAGCCGCGGCAGGGGGCGGGAGGCCCCCTTTCCTCCCAAAACTTAATATTGATTGT
modifications: lipid formulation; Rabovirus A
B8: Sclerotinia sclerotiorum dsRNA mycovirus-L (nucleic acid)
DNA: TTGAATTAATCTTTTACGTTTACGCGCATAAAATCAGGACACATCTCTTGTATACTTTAGTATATCAATGATGTTTTTGTTTTATGCGATTAATCGTAAGAGAACTTCTTTCCATCCGCCTGTATGGGCGGGATAATAAGTTCACCGCCTTGGTCGAGGCGCAAACTTGTATGTGCAAAGGTGAGCTATATGCTCGAAATAGTCGTAACTAACACACAGCCACTACCTGTAGAGCTCTATTGATCCGGAATCCTTTAGTGGGAATGCAGAGCTCACACCGGACCTGCGGGTATCTTCGGCGTTAGGGACTTCTGTTTCAGCCTTGAATCATTTACCTTTATACCTTCTCTGAGGCGCCTGGGCCGGGCGCGATATTAAGTACAAGTCAAGGACATCGCGGGTAGTGGTCTAATCAGCCGCTAGTCCTGCTGGAGAGTTCCAACTTAGTTGGGTGTGGTGCATACTAGCTGGATAGAGTAGGTATGTATTGCTAACGTATGCCGGAGGCTATCCGTCCTCGGTAGAACGTGCCGAGGAGTAGTCTCTGCAGACCCCCGAACGCGTGGGGTCTTTACTTAAATGTAGGCGGAGGGAGCGCTCGTAGGTGGAACGACTGCCTCCCAGTCGAATGCAAGATTTTGCACGCGGACCAGTCTGCCCGGCAATTCCCGGGTG
modifications: source: /note="Description of Unknown: Sclerotinia sclerotiorum dsRNA mycovirus-L sequence"

Test system: HEK293 cells
Type: cell-based, human
Conditions: circular RNA encoding Gluc with the listed IRES (UTR truncated to 675 nt) transfected into HEK293 cells; supernatant after 24 hours

| Molecule | Expression (luminescence from secreted Gluc protein) |
| --- | --- |
| B1 | 2.60E+05 |
| B2 | 2.62E+05 |
| B3 | 2.26E+08 |
| B4 | 4.37E+05 |
| B5 | 1.46E+07 |
| B6 | 6.19E+06 |
| B7 | 2.88E+06 |
| B8 | 1.69E+05 |
